Where two headings read alike, the source gives them in different places. One block for each substance: values may come before it.
Legend:
[1] = molecular target: CAT-2200 lambda light chain K129T_V133D_L135S; assay: LCCA, SPR tag read-out
[2] = molecular target: Pertuzumab kappa light chain S131K_L135K; assay: LCCA, SPR tag read-out
[3] = molecular target: CAT-2200 lambda light chain S176K_Y178K (L1), N-terminal FLAG tag; assay: LCCA, SPR of light chain tags
[4] = molecular target: Pertuzumab kappa light chain V133I_S176E_T178E (L2), N-terminal HA tag; assay: LCCA, SPR of light chain tags
[5] = molecular target: Pertuzumab kappa light chain V133I_S176E_T178E (L2), N-terminal HA tag; assay: LCCA, SPR of light chain tags; remark: listed apart in the source
[6] = molecular target: Pertuzumab kappa light chain V133I_S176D_T178E (L2), N-terminal HA tag; assay: LCCA, SPR of light chain tags
[7] = molecular target: Pertuzumab kappa light chain V133L_S176D_T178E (L2), N-terminal HA tag; assay: LCCA, SPR of light chain tags
[8] = molecular target: Pertuzumab kappa light chain V133L_S176D_T178E (L2), N-terminal HA tag; assay: LCCA, SPR of light chain tags; remark: listed apart in the source
[9] = molecular target: CAT-2200 lambda light chain S176K_Y178K (L1), N-terminal FLAG tag; assay: LCCA, SPR of light chain tags; remark: listed apart in the source
[10] = molecular target: CAT-2200 Fab heavy chain S186K; assay: LCCA
[11] = molecular target: CAT-2200 Fab heavy chain L143D_K145T; assay: LCCA
[12] = molecular target: Pertuzumab kappa light chain Q124R_T178R; assay: LCCA, SPR tag read-out
[13] = molecular target: Pertuzumab kappa light chain Q124R_L135W_Q160K_T178R; assay: LCCA, SPR tag read-out
[14] = molecular target: Pertuzumab kappa light chain Q124R_L135W_T178R; assay: LCCA, SPR tag read-out
[15] = molecular target: Pertuzumab kappa light chain Q124R_Q160R_T178R; assay: LCCA, SPR tag read-out
[16] = molecular target: Pertuzumab kappa light chain Q124R_T178R; assay: LCCA, SPR tag read-out; remark: listed apart in the source
[17] = molecular target: Pertuzumab kappa light chain Q124R_T178R; assay: LCCA, SPR tag read-out; remark: listed apart in the source
[18] = molecular target: Pertuzumab kappa light chain Q124R_T178R; assay: LCCA, SPR tag read-out; remark: listed apart in the source
[19] = molecular target: Pertuzumab kappa light chain Q124R_L135W_T178R; assay: LCCA, SPR tag read-out; remark: listed apart in the source
[20] = molecular target: Pertuzumab kappa light chain Q124R_Q160R_T178R; assay: LCCA, SPR tag read-out; remark: listed apart in the source
[21] = molecular target: Pertuzumab kappa light chain Q124R_T178R; assay: LCCA, SPR tag read-out; remark: listed apart in the source
[22] = molecular target: Pertuzumab kappa light chain Q124R_L135W_Q160K_T178R; assay: LCCA
[23] = molecular target: Pertuzumab kappa light chain Q124R_L135W_T178R; assay: LCCA, SPR tag read-out; remark: listed apart in the source
[24] = molecular target: CAT-2200 lambda light chain S122D_K129T_V133D_Y178T; assay: LCCA, SPR tag read-out
[25] = molecular target: Pertuzumab kappa light chain S121K_S131R_V133G_S176R; assay: LCCA, SPR tag read-out
[26] = molecular target: CAT-2200 lambda light chain S122D_K129T_V133D; assay: LCCA, SPR tag read-out
[27] = molecular target: CAT-2200 lambda light chain S122D_V133D_Y178T; assay: LCCA, SPR tag read-out
[28] = molecular target: Pertuzumab kappa light chain S121K_S131R_V133G_S176R; assay: LCCA, SPR tag read-out; remark: listed apart in the source
[29] = molecular target: Pertuzumab kappa light chain S121K_S131R_V133G_S176R; assay: LCCA, SPR tag read-out; remark: listed apart in the source
[30] = molecular target: CAT-2200 Fab heavy chain L143A_Q179K; assay: LCCA
[31] = molecular target: CAT-2200 Fab heavy chain L143A_Q179K; assay: LCCA; remark: listed apart in the source
[32] = molecular target: Pertuzumab kappa light chain S121K_S131K_L135K; assay: LCCA, SPR tag read-out
[33] = molecular target: CAT-2200 Fab heavy chain Q179K; assay: LCCA
[34] = molecular target: Pertuzumab kappa light chain S131K_V133G_S176R; assay: LCCA, SPR tag read-out
[35] = molecular target: CAT-2200 lambda light chain V133D_Y178T; assay: LCCA, SPR tag read-out
[36] = molecular target: Pertuzumab kappa light chain S131R_V133G_L135W_S176R; assay: LCCA, SPR tag read-out
[37] = molecular target: Pertuzumab kappa light chain S131R_V133G_S176R; assay: LCCA, SPR tag read-out
[38] = molecular target: CAT-2200 lambda light chain K129T_T131D_V133D; assay: LCCA, SPR tag read-out
[39] = molecular target: CAT-2200 lambda light chain K129T_V133D_Y178T; assay: LCCA, SPR tag read-out
[40] = molecular target: Pertuzumab kappa light chain S131K_V133G_S176R; assay: LCCA, SPR
[41] = molecular target: Pertuzumab kappa light chain S131R_V133G_S176R; assay: LCCA, SPR
[42] = molecular target: CAT-2200 lambda light chain K129T_V133D; assay: LCCA, SPR
[43] = molecular target: CAT-2200 lambda light chain K129T_V133D; assay: LCCA, SPR; remark: listed apart in the source
[44] = molecular target: Pertuzumab kappa light chain S131K_V133G_S176R; assay: LCCA, SPR; remark: listed apart in the source
[45] = molecular target: Pertuzumab kappa light chain S131R_V133G_S176R; assay: LCCA, SPR; remark: listed apart in the source
[46] = molecular target: Pertuzumab kappa light chain S131R_V133G_L135W_S176R; assay: LCCA, SPR tag read-out; remark: listed apart in the source
[47] = molecular target: Pertuzumab kappa light chain S131K_V133G_S176R; assay: LCCA, SPR tag read-out; remark: listed apart in the source
[48] = molecular target: Pertuzumab kappa light chain S131R_V133G_L135W_S176R; assay: LCCA, SPR tag read-out; remark: listed apart in the source

Substance: Pertuzumab Fab heavy chain V177I_S188K (H2), ABD2-His6 tagged
H2L2:H2L1 normalized median ratio [3]: 9%
H2L2:H2L1 normalized median scalar value ln(r1/f1) [4]: 2.79
H2L2:H2L1 normalized median scalar value ln(r1/f1) [5]: 2.83
H2L2:H2L1 normalized median ratio [6]: 91%
H2L2:H2L1 normalized median scalar value ln(r1/f1) [6]: 2.34
H2L2:H2L1 normalized median ratio [7]: 91%
H2L2:H2L1 normalized median scalar value ln(r1/f1) [7]: 2.37
H2L2:H2L1 normalized median scalar value ln(r1/f1) [8]: 0.55
H2L2:H2L1 normalized median ratio [9]: 9%

Substance: Pertuzumab Fab heavy chain L124E_K145T_Q179E_K228D
H2L2:H2L1 normalized median ratio [24]: 8%
H2L2:H2L1 median scalar value [25]: 1.9 ln(ratio)
H2L2:H2L1 normalized median ratio [25]: 86%
H2L2:H2L1 normalized median ratio [26]: 5%
H2L2:H2L1 normalized median ratio [27]: 14%
H2L2:H2L1 median scalar value [28]: 3.08 ln(ratio)
H2L2:H2L1 normalized median ratio [28]: 95%
H2L2:H2L1 median scalar value [29]: 2.42 ln(ratio)
H2L2:H2L1 normalized median ratio [29]: 92%

Substance: CAT-2200 lambda light chain K129T_V133W_S180E
H1L1:H1L2 median scalar value (ln(H1L1:H1L2)) [30]: 0.88
H1L1:H1L2 median scalar value (ln(H1L1:H1L2)) [31]: 1.51

Substance: Pertuzumab Fab heavy chain L124E_K145T_Q179E
H2L2:H2L1 median scalar value [34]: 3.26 ln(ratio)
H2L2:H2L1 normalized median ratio [35]: 16%
H2L2:H2L1 median scalar value [36]: 1.71 ln(ratio)
H2L2:H2L1 median scalar value [37]: 4.11 ln(ratio)
H2L2:H2L1 normalized median ratio [38]: 4%
H2L2:H2L1 normalized median ratio [39]: 16%
H2L2:H2L1 normalized median scalar value ln(r1/f1) [40]: 2.38
H2L2:H2L1 normalized median scalar value ln(r1/f1) [41]: 3.12
H2L2:H2L1 normalized median ratio [42]: 8%
H2L2:H2L1 normalized median ratio [43]: 4%
H2L2:H2L1 normalized median scalar value ln(r1/f1) [44]: 2.18
H2L2:H2L1 normalized median scalar value ln(r1/f1) [45]: 2.72
H2L2:H2L1 median scalar value [46]: 1.7 ln(ratio)
H2L2:H2L1 median scalar value [47]: 3.71 ln(ratio)
H2L2:H2L1 median scalar value [48]: 2.31 ln(ratio)

Other lines, results leading:

H2L2:H2L1 normalized median ratio [1]: 39%
H2L2:H2L1 median scalar value [2]: 0.48 ln(ratio)
H2L2:H2L1 normalized median ratio [2]: 61%
Substance: Pertuzumab Fab heavy chain L124E_A139I_K145T_V190I

H1L1:H1L2 median scalar value (ln(H1L1:H1L2)) [10]: 0.06
Substance: CAT-2200 lambda light chain K129T_V133D_Y178T

H1L1:H1L2 median scalar value (ln(H1L1:H1L2)) [11]: 0.54
Substance: CAT-2200 lambda light chain E124Q_T131K_V133S

H2L2:H2L1 median scalar value [12]: 3.52 ln(ratio)
H2L2:H2L1 median scalar value [13]: 2.02 ln(ratio)
H2L2:H2L1 median scalar value [14]: 2.64 ln(ratio)
H2L2:H2L1 median scalar value [15]: 2.79 ln(ratio)
H2L2:H2L1 median scalar value [16]: 3.63 ln(ratio)
H2L2:H2L1 median scalar value [17]: 3.1 ln(ratio)
H2L2:H2L1 median scalar value [18]: 3.01 ln(ratio)
H2L2:H2L1 median scalar value [19]: 2.54 ln(ratio)
H2L2:H2L1 median scalar value [20]: 2.58 ln(ratio)
H2L2:H2L1 median scalar value [21]: 2.74 ln(ratio)
H2L2:H2L1 median scalar value [22]: 0.77 ln
H2L2:H2L1 median scalar value [23]: 2.68 ln(ratio)
Substance: Pertuzumab Fab heavy chain L143E_K145T_Q179E

H2L2:H2L1 median scalar value [32]: 0.25 ln(ratio)
Substance: Pertuzumab Fab heavy chain L124E_A139I_K145T_V190I_K228D

H1L1:H1L2 median scalar value (ln(H1L1:H1L2)) [33]: 0.89
Substance: CAT-2200 lambda light chain K129T_Y178E_S180E
